Patent publication US20030108924A1

Target: KCNQ1 cardiac potassium channel (KvLQT1), full-length (UniProt P51787)
Test: cell-based or functional assay

KCNE1-D85N (cardiac potassium channel minK subunit polypeptide with asparagine at amino acid 85)
increase of current after the 10th pulse of a depolarizing pulse train: 1.9 fold | time constant for activation at +40 mV (first time constant): 368 ms | time constant for activation at +40 mV (second time constant): 2150 ms | time constant of deactivation (tail currents at -50 mV after activation at +60 mV): 295 ms | voltage-dependence of activation, V1/2: 20.6 mV
